Laboratory results published in the supplement of paper PMC7125110.
± gives the standard error. For some of these results: Variants at the floor of the assay were thinned out.

B1: glmS ribozyme (parent)
chain: AUAAAAGCGCCAGAACUACAGAAAUGUAGUUGACGAGGAGGAGGUUUAUCGAAUUUUCGGCGGAUGCCUCCAAA

Assays:
Settings in all cases: with glucosamine-6-phosphate
glucosamine-6-phosphate [1] = variants of: B1; assay: kcat; higher = faster cleavage; RNA array
Procedure, shortened: (§1)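 The measurements used barcoded ribozyme variants on sequenced MiSeq chips, transcribed in situ by E. coli RNA polymerase and tracked at 37 °C with a hybridised Cy3 probe. Glucosamine-6-phosphate, 40 μM to 10 mM in HEPES/KCl/Mg(OAc)2 buffer, was flowed in while tiles were imaged over ~14 h. Baseline-normalised signals, also normalised to non-cleaving reference variants, gave per-tile medians that were fit to one- or two-exponential decays for kobs. kcat and KM resulted from weighted Michaelis–Menten fits across concentrations.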

glucosamine-6-phosphate [2] = variants of: B1; assay: KM; higher = weaker cofactor use; RNA array
Procedure, shortened: as §1

glucosamine-6-phosphate [3] = variants of: B1; assay: self-cleavage kobs at 40 uM GlcN6P; higher = faster cleavage; RNA array
Procedure, shortened: as §1

glucosamine-6-phosphate [4] = variants of: B1; assay: self-cleavage kobs at 160 uM GlcN6P; higher = faster cleavage; RNA array
Procedure, shortened: as §1

glucosamine-6-phosphate [5] = variants of: B1; assay: self-cleavage kobs at 640 uM GlcN6P; higher = faster cleavage; RNA array
Procedure, shortened: as §1

glucosamine-6-phosphate [6] = variants of: B1; assay: self-cleavage kobs at 2500 uM GlcN6P; higher = faster cleavage; RNA array
Procedure, shortened: as §1

glucosamine-6-phosphate [7] = variants of: B1; assay: self-cleavage kobs at 10000 uM GlcN6P; higher = faster cleavage; RNA array
Procedure, shortened: as §1

Variant | kcat (glucosamine-6-phosphate [1]) [s⁻¹] | KM (glucosamine-6-phosphate [2]) [µM] | self-cleavage kobs at 40 uM GlcN6P (glucosamine-6-phosphate [3]) [s⁻¹] | self-cleavage kobs at 160 uM GlcN6P (glucosamine-6-phosphate [4]) [s⁻¹] | self-cleavage kobs at 640 uM GlcN6P (glucosamine-6-phosphate [5]) [s⁻¹] | self-cleavage kobs at 2500 uM GlcN6P (glucosamine-6-phosphate [6]) [s⁻¹] | self-cleavage kobs at 10000 uM GlcN6P (glucosamine-6-phosphate [7]) [s⁻¹]
C16U G66U | 0.00129 ± 0.00016 | 1550 ± 340 | 3.86e-05 ± 7.8e-06 | 9.95e-05 ± 2e-05 | 0.000375 ± 4.5e-05 | 0.000956 ± 0.00011 | 0.00105 ± 0.00011
C16G G40U | 0.00053 ± 2.1e-05 | 4960 ± 340 | – | – | 6.22e-05 ± 1.1e-05 | 0.000171 ± 2.7e-05 | 0.000357 ± 4.2e-05
C16U C61G | < 1e-05 | – | – | – | – | – | –
C16G C34U | < 1e-05 | – | < 1e-05 | < 1e-05 | < 1e-05 | – | < 1e-05
C16G C70G | 5.91e-05 ± 5.2e-06 | – | – | – | 5.48e-05 ± 9.9e-06 | 6.29e-05 ± 9.7e-06 | 5.09e-05 ± 9.5e-06
C16G C70A | 3.75e-05 ± 1.5e-05 | – | – | – | – | 6.29e-05 ± 1.4e-05 | 2.51e-05 ± 1.1e-05
C16U A33U C71G | 2.09e-05 ± 7.7e-06 | – | – | – | – | – | –
C16U C70G | 0.000316 ± 9.7e-05 | – | 4.19e-05 ± 6.7e-06 | 9.18e-05 ± 8.2e-06 | 0.000186 ± 1.6e-05 | 0.000619 ± 0.00016 | 0.000497 ± 0.00011
C16G C61U C67U | < 1e-05 | – | < 1e-05 | < 1e-05 | – | – | < 1e-05
C16G C50U | < 1e-05 | – | – | < 1e-05 | – | – | –
C16G C61A | 1.02e-05 ± 1.1e-06 | – | – | – | – | – | –
C16G C61U | < 1e-05 | – | < 1e-05 | < 1e-05 | – | – | –
C16U A53U G66A C67U | 0.00153 ± 0.0004 | 755 ± 320 | 8.2e-05 ± 1.8e-05 | – | 0.000671 ± 0.00013 | 0.000968 ± 0.00031 | 0.00215 ± 0.00061
C16G U57G | 2.25e-05 ± 2.8e-06 | – | < 1e-05 | – | – | – | –
C16U C67G C68U | 6.15e-05 ± 1.2e-05 | – | – | – | 7.27e-05 ± 2.2e-05 | 6.31e-05 ± 2.8e-05 | 5.02e-05 ± 1.9e-05
C16U A36C | < 1e-05 | 28.4 ± 13 | < 1e-05 | – | < 1e-05 | < 1e-05 | –
C16G G59A | 1.51e-05 ± 3.3e-06 | – | – | – | – | – | –
C16U G41U | 0.00145 ± 0.00031 | 599 ± 170 | 9.78e-05 ± 8.3e-06 | 0.000229 ± 4.6e-05 | 0.000727 ± 0.00014 | 0.00155 ± 0.00029 | 0.00126 ± 0.00027
C16A U56C | 0.000253 ± 8.5e-06 | 1940 ± 160 | < 1e-05 | – | 6.38e-05 ± 1.8e-05 | 0.000144 ± 3.2e-05 | 0.000211 ± 3.4e-05
